From US20250186503A1, “METHODS AND COMBINATIONS FOR TREATMENT AND T CELL MODULATION” (Juno Therapeutics, Inc., priority 2018, published 2025)

Tested on: anti-BCMA CARs
Assay: Binding of BCMA-Fc fusion protein to CAR-expressing T cells (flow cytometry)
Experimental: The clone encoding the human BCMA-Fc fusion construct with the N-terminal CD33 leader sequence (SEQ ID NO: 21) was inserted into an expression vector and expressed in HEK 293 cells. The resulting BCMA-Fc fusion protein was determined to have a purity of greater than 95% as assessed by gel permeation chromatography.

B1: BCMA-Fc fusion protein: extracellular domain of human BCMA and a human IgG1 Fc connected with a linker (SEQ ID NO: 22) (protein)
chain: MPLLLLLPLLWAGALAMLQMAGQCSQNEYFDSLLHACIPCQLRCSSNTPPLTCQRYCNASVTNSVKGTNAGGGGSPKSSDKTHTCPPCPAPEAEGAPSVFLFPPKPKDTLMISRTPEVTCVVVDVSHEDPEVKFNWYVDGVEVHNAKTKPREEQYNSTYRVVSVLTVLHQDWLNGKEYKCKVSNKALPSSIEKTISKAKGQPREPQVYTLPPSRDELTKNQVSLTCLVKGFYPSDIAVEWESNGQPENNYKTTPPVLDSDGSFFLYSKLTVDKSRWQQGNVFSCSVMHEALHNHYTQKSLSLSPGK
modifications: BCMA-Fc construct
B1 was tested, and the “binding to anti-BCMA CAR expressing T cells” value was “specifically bound”.
